Positions count from the first letter of the chain named. Names and notes keep the numbering of the source.
Tests used:
[1] = molecular target: T1, native sigmaA-RNA polymerase holoenzyme (Bacillus subtilis, UniProt P20429;P37870;P37871;P06224 1-314;1-1193;1-1199;1-371); assay: EMSA; 5 mM Mg2+, heparin 80 ng/uL; 40 mM Tris-HCl pH 8.0, 5 mM MgCl2, 160 mM KCl, 1 mM DTT, heparin 80 ng/uL, ~10 nM RNA, plus RNAP storage buffer; 30 min at 37 C; native 7.5% PAGE (10% for Fig 12); conditions: protein: native, chain copies: 2;1;1;1, label: 5'-32P
T1 sequence (P20429 whole entry, chain 1 of 4): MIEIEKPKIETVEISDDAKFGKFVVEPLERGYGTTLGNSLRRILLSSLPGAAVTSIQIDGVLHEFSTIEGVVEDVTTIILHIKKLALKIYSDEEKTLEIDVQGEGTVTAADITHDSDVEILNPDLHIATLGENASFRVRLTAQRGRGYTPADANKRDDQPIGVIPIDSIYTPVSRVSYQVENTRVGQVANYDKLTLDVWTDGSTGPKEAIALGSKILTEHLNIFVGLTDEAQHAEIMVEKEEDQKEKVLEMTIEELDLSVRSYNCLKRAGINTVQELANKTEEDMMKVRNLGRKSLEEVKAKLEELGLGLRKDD
T1 sequence (P37870 whole entry, chain 2 of 4): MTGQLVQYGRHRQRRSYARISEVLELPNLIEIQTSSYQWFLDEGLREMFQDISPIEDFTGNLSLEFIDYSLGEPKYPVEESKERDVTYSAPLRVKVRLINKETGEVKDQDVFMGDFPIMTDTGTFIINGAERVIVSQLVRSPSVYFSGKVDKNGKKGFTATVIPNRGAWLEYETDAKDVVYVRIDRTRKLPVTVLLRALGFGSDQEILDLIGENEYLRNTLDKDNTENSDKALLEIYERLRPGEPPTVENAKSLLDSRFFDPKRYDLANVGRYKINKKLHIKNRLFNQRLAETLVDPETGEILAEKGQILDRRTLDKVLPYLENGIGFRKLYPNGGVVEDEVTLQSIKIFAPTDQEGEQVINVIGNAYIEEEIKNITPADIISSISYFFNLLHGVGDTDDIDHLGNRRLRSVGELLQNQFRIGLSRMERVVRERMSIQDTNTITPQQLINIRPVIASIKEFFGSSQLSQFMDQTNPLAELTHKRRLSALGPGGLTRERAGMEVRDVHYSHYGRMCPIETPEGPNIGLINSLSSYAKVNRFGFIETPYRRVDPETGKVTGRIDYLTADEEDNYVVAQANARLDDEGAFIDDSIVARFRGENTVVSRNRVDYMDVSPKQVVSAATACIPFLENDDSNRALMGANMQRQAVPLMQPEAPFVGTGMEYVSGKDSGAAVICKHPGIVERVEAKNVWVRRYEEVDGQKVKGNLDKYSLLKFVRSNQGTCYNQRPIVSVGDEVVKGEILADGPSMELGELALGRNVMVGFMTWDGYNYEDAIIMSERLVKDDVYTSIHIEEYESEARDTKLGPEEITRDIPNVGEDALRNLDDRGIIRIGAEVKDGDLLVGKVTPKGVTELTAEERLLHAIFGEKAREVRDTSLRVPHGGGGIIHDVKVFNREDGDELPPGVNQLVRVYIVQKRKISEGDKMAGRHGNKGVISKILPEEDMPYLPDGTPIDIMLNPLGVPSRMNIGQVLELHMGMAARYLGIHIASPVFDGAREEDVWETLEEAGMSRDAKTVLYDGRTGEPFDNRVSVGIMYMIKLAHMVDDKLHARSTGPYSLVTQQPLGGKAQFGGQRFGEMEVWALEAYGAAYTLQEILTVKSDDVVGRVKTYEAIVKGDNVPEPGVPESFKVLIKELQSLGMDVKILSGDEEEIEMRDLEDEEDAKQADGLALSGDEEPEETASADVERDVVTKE
T1 sequence (P37871 whole entry, chain 3 of 4): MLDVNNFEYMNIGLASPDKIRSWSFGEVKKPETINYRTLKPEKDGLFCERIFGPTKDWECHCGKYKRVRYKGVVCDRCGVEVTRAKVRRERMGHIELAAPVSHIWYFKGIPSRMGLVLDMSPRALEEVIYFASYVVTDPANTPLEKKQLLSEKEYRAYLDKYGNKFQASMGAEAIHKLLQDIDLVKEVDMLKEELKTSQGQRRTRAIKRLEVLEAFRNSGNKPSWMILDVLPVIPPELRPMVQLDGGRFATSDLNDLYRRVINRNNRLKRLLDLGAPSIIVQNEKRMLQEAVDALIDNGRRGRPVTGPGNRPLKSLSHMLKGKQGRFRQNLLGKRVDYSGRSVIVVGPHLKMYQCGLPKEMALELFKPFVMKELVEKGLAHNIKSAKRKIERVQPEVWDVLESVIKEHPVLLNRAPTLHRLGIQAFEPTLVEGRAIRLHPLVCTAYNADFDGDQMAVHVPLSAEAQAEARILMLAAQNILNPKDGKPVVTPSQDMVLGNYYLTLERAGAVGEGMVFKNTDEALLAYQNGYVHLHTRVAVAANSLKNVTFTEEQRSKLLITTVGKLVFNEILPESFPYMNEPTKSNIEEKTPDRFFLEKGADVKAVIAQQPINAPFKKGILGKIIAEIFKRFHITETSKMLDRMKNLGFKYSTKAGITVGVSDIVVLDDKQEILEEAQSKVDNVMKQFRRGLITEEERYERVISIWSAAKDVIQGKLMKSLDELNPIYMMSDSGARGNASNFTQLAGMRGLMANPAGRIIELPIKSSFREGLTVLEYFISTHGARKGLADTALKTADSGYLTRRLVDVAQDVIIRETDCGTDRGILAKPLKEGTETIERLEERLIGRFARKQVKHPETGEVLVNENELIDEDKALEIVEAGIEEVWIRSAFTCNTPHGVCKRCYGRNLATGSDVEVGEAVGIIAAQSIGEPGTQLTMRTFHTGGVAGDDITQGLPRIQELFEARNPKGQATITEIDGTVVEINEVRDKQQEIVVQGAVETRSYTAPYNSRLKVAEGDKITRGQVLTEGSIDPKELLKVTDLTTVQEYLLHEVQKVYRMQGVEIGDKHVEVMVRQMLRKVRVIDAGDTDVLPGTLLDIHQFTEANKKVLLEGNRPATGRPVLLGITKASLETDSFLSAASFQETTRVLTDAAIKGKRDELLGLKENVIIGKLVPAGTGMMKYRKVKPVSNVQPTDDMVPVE
T1 sequence (P06224 whole entry, chain 4 of 4): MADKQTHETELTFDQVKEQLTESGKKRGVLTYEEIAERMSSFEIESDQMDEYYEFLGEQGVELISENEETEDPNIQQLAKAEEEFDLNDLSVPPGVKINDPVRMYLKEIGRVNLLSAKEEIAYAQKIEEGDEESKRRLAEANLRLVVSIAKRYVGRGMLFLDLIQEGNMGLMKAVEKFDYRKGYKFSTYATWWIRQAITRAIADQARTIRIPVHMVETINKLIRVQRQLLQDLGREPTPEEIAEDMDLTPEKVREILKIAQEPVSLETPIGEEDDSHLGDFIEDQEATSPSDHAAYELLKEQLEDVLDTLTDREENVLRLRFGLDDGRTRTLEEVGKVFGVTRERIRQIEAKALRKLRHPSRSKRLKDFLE

[2] = molecular target: T1, native sigmaA-RNA polymerase holoenzyme; assay: EMSA; pRNA pre-annealed; 40 mM Tris-HCl pH 8.0, 5 mM MgCl2, 160 mM KCl, 1 mM DTT, heparin 80 ng/uL, ~10 nM RNA, plus RNAP storage buffer; 30 min at 37 C; native 7.5% PAGE (10% for Fig 12); conditions: protein: native; chain copies: 2;1;1;1; label: 5'-32P on 6S-1 RNA; pRNA annealed to 6S-1 RNA from nt 40 upstream
[3] = molecular target: T2, sigmaA-RNA polymerase holoenzyme (native or His-tagged SG7 preparation, not specified for this assay) (Bacillus subtilis, UniProt P20429;P37870;P37871;P06224 1-314;1-1193;1-1199;1-371); assay: EMSA; K1/2 printed only in graph; 40 mM Tris-HCl pH 8.0, 5 mM MgCl2, 160 mM KCl, 1 mM DTT, heparin 80 ng/uL, ~10 nM RNA, plus RNAP storage buffer; 30 min at 37 C; native 7.5% PAGE (10% for Fig 12); conditions: protein: native; chain copies: 2;1;1;1; label: 5'-32P
T2 sequence (P20429 whole entry, chain 1 of 4): as the sequence (P20429 whole entry, chain 1 of 4) above
T2 sequence (P37870 whole entry, chain 2 of 4): as the sequence (P37870 whole entry, chain 2 of 4) above
T2 sequence (P37871 whole entry, chain 3 of 4): as the sequence (P37871 whole entry, chain 3 of 4) above
T2 sequence (P06224 whole entry, chain 4 of 4): as the sequence (P06224 whole entry, chain 4 of 4) above

[4] = molecular target: T1, native sigmaA-RNA polymerase holoenzyme; assay: EMSA; Kd printed only in graph; 40 mM Tris-HCl pH 8.0, 5 mM MgCl2, 160 mM KCl, 1 mM DTT, heparin 80 ng/uL, ~10 nM RNA, plus RNAP storage buffer; 30 min at 37 C; native 7.5% PAGE (10% for Fig 12); conditions: protein: native; chain copies: 2;1;1;1; label: 5'-32P
[5] = molecular target: T2, sigmaA-RNA polymerase holoenzyme …; assay: EMSA; almost three-fold; K1/2 only in graph; 40 mM Tris-HCl pH 8.0, 5 mM MgCl2, 160 mM KCl, 1 mM DTT, heparin 80 ng/uL, ~10 nM RNA, plus RNAP storage buffer; 30 min at 37 C; native 7.5% PAGE (10% for Fig 12); conditions: protein: native; chain copies: 2;1;1;1; label: 5'-32P
[6] = molecular target: T1, native sigmaA-RNA polymerase holoenzyme; assay: EMSA; pLNA pre-annealed; 40 mM Tris-HCl pH 8.0, 5 mM MgCl2, 160 mM KCl, 1 mM DTT, heparin 80 ng/uL, ~10 nM RNA, plus RNAP storage buffer; 30 min at 37 C; native 7.5% PAGE (10% for Fig 12); conditions: protein: native; chain copies: 2;1;1;1; label: 5'-32P on 6S-1 RNA; pLNA annealed to 6S-1 RNA from nt 40 upstream
[7] = molecular target: T1, native sigmaA-RNA polymerase holoenzyme; assay: EMSA; up to 3-fold with other RNAP preparations; 40 mM Tris-HCl pH 8.0, 5 mM MgCl2, 160 mM KCl, 1 mM DTT, heparin 80 ng/uL, ~10 nM RNA, plus RNAP storage buffer; 30 min at 37 C; native 7.5% PAGE (10% for Fig 12); conditions: protein: native; chain copies: 2;1;1;1; label: 5'-32P

B1: 6S82cp RNA (structured_RNA)
RNA: GGGCACCCACCUGCUGAGAGCGGGUUCAAAACAAAGGAAAGCCACCUAGUUUUGACCGAACAUUUUUUUGAUUUGGGAGCCC
- apparent K (half saturation) ([1]; artificial loop capping P2): ~1000 nM

B2: 6S78 RNA (structured_RNA)
RNA: CCUAGUUUUGACCGAACAUUUUUUUGAUUUGGGAGCCCGCAGGGCACCCACCUGCUGAGAGCGGGUUCAAAACAAAGG
- apparent K (half saturation) [1]: ~1000 nM

B3: wt 6S-1 RNA (190 nt) (structured_RNA)
RNA: AGUCCUGAUGUGUUAGUUGUACACCUAGUUUUGACCGAACAUUUUUUUGAUUUGGGAGCCCGCAUUUUUAAAUGGCGUACAUGCCUCUUUUCAUUCGGUAAAGAGGACUUACAAGAUUUAAAAGAGGGCACCCACCUGCUGAGAGCGGGUUCAAAACAAAGGAAAGCUGCAACGGCACUAUUGGGACUUU
- apparent K (half saturation) ([1]; rod-shaped, central bubble flanked by two helical arms): ~100 nM

B4: 6S-1 RNA:pRNA 14-mer (structured_RNA)
RNA 1: B3 RNA
RNA 2: GUUCGGUCAAAACU
- binding result [2]: no binding

B5: C44/45 8M 6S-1 RNA (structured_RNA)
RNA: B3 RNA with U30C, U31A, U32A, A34G, U44C, U45C, U151C, A153U, A154U, A155G
- binding signal [3]: ~1.5 fold lower affinity vs wt 8M

B6: 6S-1 RNA A50U (structured_RNA)
RNA: B3 RNA with A50U
- binding signal [4]: ~2 fold Kd increase vs wt

B7: C44/45 6M 6S-1 RNA (structured_RNA)
RNA: B3 RNA with U30C, U31A, U32A, A34G, U44C, U45C, A154U, A155G
- binding signal [5]: ~3 fold lower affinity vs wt 6M

B8: 6S-1 RNA:pLNA 6-mer (mixed)
RNA: B3 RNA
DNA: GTTCGG
modifications: strand 2 LNA, iso-sequential to pRNA (first 6 nt inferred)
- binding result [6]: no binding

B9: 6S-1 RNA:pLNA 8-mer (mixed)
RNA: B3 RNA
DNA: GTTCGGTC
modifications: strand 2 all-LNA
- binding result [6]: no binding

B10: 6S-1 RNA C44/45 (structured_RNA)
RNA: B3 RNA with U44C, U45C
- binding signal [7]: ~2 fold lower affinity vs wt

B11: 6S-1 RNA:pLNA 7-mer (mixed)
RNA: B3 RNA
DNA: GTTCGGT
modifications: strand 2 LNA, iso-sequential to pRNA (first 7 nt inferred)
- binding result [6]: no binding

— paper PMC8876501, “Structural and Functional Insight into the Mechanism of Bacillus subtilis 6S-1 RNA Release from RNA Polymerase”
